± gives the standard deviation of the averaged measurements.
B1: library; a variant is named by its letters at N, in order (parent)
chain: AATGTTGTTGATGCAACCATAAAGTGATATTTAATAATTATTTATAATCAGCAACTTAACCACAAAACAACCATATATTGATATNTCACAAAACAACCATAANTTGATATTTTTGTGAATCGAGTATTTCAGCAAAACTACTGCAGTAAGAA

What was measured:
[1] = variants of: B1; experiment: relative integration efficiency (T-LR orientation) vs wild-type transposon end (log2 (normalized fold change)); transposon end mutated: left end; higher = more efficient transposition; details: with VchCAST RNA-guided transposition machinery (E. coli BL21(DE3) host, lacZ target)
How it was run: (§1)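 Each barcoded pool, 1549 left-end or 1849 right-end transposon variants in a pUC57 mini-transposon donor, went into E. coli BL21(DE3) with a T7-driven effector plasmid (CRISPR array, tniQ-cas8-cas7-cas6, tnsA-tnsB-tnsC). Plates contained 0.1 mM IPTG and were held at 37°C for 18 h. Input plasmids and genomic integration junctions were PCR-amplified and read by Illumina sequencing, with two biological output replicates and four reference barcodes. Relative integration efficiency is the fold change of output over input barcode abundance, normalised to the reference barcodes and log-transformed.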

[2] = variants of: B1; experiment: relative integration efficiency (T-RL orientation) vs wild-type transposon end (log2 (normalized fold change)); transposon end mutated: left end; higher = more efficient transposition; details: with VchCAST RNA-guided transposition machinery (E. coli BL21(DE3) host, lacZ target)
How it was run: as §1

Row | Variant | relative integration efficiency (log2) [1] | relative integration efficiency (log2) [2]
1 | CG T39A A40T | 0.255 ± 0.22 | 0.244 ± 0.039
2 | CG T110G T111G T112G T113G | -1.8 ± 1.2 | -1.4 ± 0.63
3 | CG T30G | -0.765 ± 0.6 | -0.614 ± 0.37
4 | CG T30C | 0.128 ± 0.19 | 0.0623 ± 0.096
5 | CG T30A | 0.497 ± 0.092 | 0.256 ± 0.046
6 | CG T30G T31G T32G A33C | -1.21 ± 0.73 | -1.06 ± 0.5
7 | CG T78G T79G | 0.377 ± 0.26 | 0.387 ± 0.84
8 | AG T86G | 0.305 ± 0.13 | -0.271 ± 0.068
9 | CG T74G | -1.2 ± 1.2 | -1.35 ± 0.79
10 | CG T74C | -0.976 ± 1.2 | -1.33 ± 0.63
11 | CG T74A | -0.12 ± 0.44 | -0.331 ± 0.2
12 | CG T38A T39A | 0.516 ± 0.23 | 0.474 ± 0.18
13 | CG T113C | 0.405 ± 0.02 | 0.263 ± 0.16
14 | CG T113A | -0.342 ± 0.22 | -0.277 ± 0.047
15 | CG T113G | 0.451 ± 0.17 | -0.0711 ± 0.12
16 | CG T108C | -0.173 ± 0.39 | -0.187 ± 0.35
17 | CG T108G | -0.924 ± 0.023 | -0.684 ± 0.41
18 | CG T108A | -1.1 ± 0.37 | -0.257 ± 0.48
19 | GG T82A A83T T84A | -0.904 ± 0.77 | -0.974 ± 0.49
20 | CG T32A T86A T112A | 0.255 ± 0.42 | -0.0963 ± 0.053
21 | CG T111C | -0.338 ± 0.58 | -0.142 ± 0.1
22 | CG T111A | -0.0724 ± 0.42 | -0.134 ± 0.076
23 | CG T111G | 0.0369 ± 0.43 | -0.195 ± 0.25
24 | CG T32G A33C T86G C87A T112G T113G | -0.849 ± 0.54 | -0.843 ± 0.24

Row | Variant | relative integration efficiency (log2) [1] | relative integration efficiency (log2) [2]
25 | CG T42G T43G A44C T45G | 0.391 ± 0.16 | -0.108 ± 0.12
26 | CG T110G T111G | -1.08 ± 0.37 | -1.16 ± 0.65
27 | GG T30A T31A T32A A33T T84A T86A C87G T110A T111A T112A T113A | -1.77 ± 2.3 | -1.15 ± 0.64
28 | CG T48A C49A A50T C52T A53G C55G T56C T57G A59G C60T C61A A66C A67C | 0.607 ± 0.81 | -5.05 ± 1.9
29 | CG T30A T31C A77C | -0.793 ± 0.14 | -0.48 ± 0.16
30 | CG T113G T114G G115T T116G | -0.271 ± 0.14 | -0.144 ± 0.053
31 | CG T112G T113G | -0.314 ± 0.34 | -0.443 ± 0.12
32 | CG T32A A33T | 0.105 ± 0.075 | -0.145 ± 0.16
33 | CG T30A T31C T32A | -0.303 ± 0.45 | -0.29 ± 0.22
34 | CG T45A A46T | -0.208 ± 0.19 | 0.192 ± 0.024
35 | CG T86G C87A A88C C89A | -0.0346 ± 0.016 | 0.0789 ± 0.1
36 | CG T38A | 0.0433 ± 0.41 | -0.123 ± 0.054
37 | CG T38C | 0.236 ± 0.068 | -0.0081 ± 0.1
38 | CG T38G | 0.138 ± 0.0017 | -0.123 ± 0.065
39 | CG T79G G80T A81C T82G | -2.43 ± 1.1 | -2.68 ± 0.95
40 | CG T56A T57A | -0.409 ± 0.79 | -0.165 ± 0.21
41 | AG T84G | -0.223 ± 1.1 | -0.407 ± 0.3
42 | CG T79A | -0.546 ± 0.48 | -0.596 ± 0.38
43 | CG T79G | -0.323 ± 0.18 | -0.702 ± 0.47
44 | CG T79C | -0.488 ± 0.74 | -0.605 ± 0.26
45 | CG T104G T105G G106T A107C | -2.25 ± 1.7 | -2.11 ± 0.66
46 | CG T108G A109C T110G T111G | -2.71 ± 1.1 | -1.63 ± 0.69
47 | CG T48G | 0.0472 ± 0.93 | 0.24 ± 0.2
48 | CG T48A | 0.212 ± 0.68 | 0.162 ± 0.22

Row | Variant | relative integration efficiency (log2) [1] | relative integration efficiency (log2) [2]
49 | CG T48C | -0.224 ± 0.18 | -0.219 ± 0.15
50 | AG T31G T111G | -0.732 ± 0.38 | -0.99 ± 0.44
51 | GG T31A T32A A33T T86A C87G T111A T112A T113A | -0.524 ± 0.35 | -0.495 ± 0.72
52 | CG T74G A75C | -2.15 ± 0.86 | -2.21 ± 0.94
53 | AG T86G C87A A88C | 0.0813 ± 0.34 | -0.158 ± 0.041
54 | CG T108G A109C | -0.995 ± 1 | -1.16 ± 0.59
55 | CG T82A A83T | -0.417 ± 0.84 | -0.851 ± 0.49
56 | CG T41A T42A T43A A44T | 0.249 ± 0.14 | 0.195 ± 0.17
57 | CG T105A | -1.22 ± 0.29 | -0.835 ± 0.58
58 | CG T105C | -0.552 ± 0.81 | -0.583 ± 0.2
59 | CG T105G | -0.747 ± 0.68 | -1.17 ± 0.51
60 | CG T74A A75T T76A A77T | -0.829 ± 0.96 | -0.759 ± 0.32
61 | CG T45A | 0.403 ± 0.63 | -0.0115 ± 0.062
62 | CG T45C | -0.0724 ± 0.056 | -0.326 ± 0.093
63 | CG T45G | -0.109 ± 0.19 | -0.0406 ± 0.053
64 | CG T104A T105A G106C A107T | -1.39 ± 0.94 | -2.04 ± 0.73
65 | GG T31A T111A | -0.483 ± 0.67 | -0.581 ± 0.56
66 | CG T35G A36C A37C T38G | 0.209 ± 0.74 | 0.203 ± 0.092
67 | TG T76A A77G C87T | 0.266 ± 0.15 | -0.247 ± 0.35
68 | CG T105G G106T | -0.649 ± 0.86 | -1.2 ± 0.72
69 | CG T39A A40T T41A T42A | 0.453 ± 0.17 | 0.475 ± 0.019
70 | CG T32G A33C A34C T35G | 0.074 ± 0.25 | -0.364 ± 0.079
71 | CG T43G A44C T45G A46C | 0.536 ± 0.48 | -0.504 ± 0.27
72 | CG T57A A58T | -3.38 ± 2.1 | -0.792 ± 0.44

Row | Variant | relative integration efficiency (log2) [1] | relative integration efficiency (log2) [2]
73 | AG T84G T86G C87A | 0.381 ± 0.25 | 0.0958 ± 0.22
74 | CG T39G A40C T41G T43A A44C A47G C49T G51A A53T C55G A58C A59G C60A | -5.96 ± 2.7 | -4.12 ± 1.1
75 | CG T38A T42A T45A A47T C49A G51T C52T A54T C55T T56A T57A A59T | -2.39 ± 1.1 | -2.37 ± 0.87
76 | CG T84G | -0.943 ± 0.55 | -0.591 ± 0.3
77 | CG T84A | -0.0315 ± 0.47 | -0.0633 ± 0.033
78 | CG T84C | -0.172 ± 0.0094 | -0.158 ± 0.056
79 | CG T35A A36T A37T T38A | 0.322 ± 0.34 | 0.354 ± 0.019
80 | CG T100A | 0.42 ± 1 | 0.66 ± 0.49
81 | CG T100C | -2.04 ± 0.83 | -1.27 ± 0.52
82 | CG T100G | -0.934 ± 1.6 | -0.706 ± 0.73
83 | CG T32A A33T T86A C87G T112A T113A | -0.463 ± 0.11 | -0.48 ± 0.21
84 | AG T82G A83C T84G | -1.31 ± 0.38 | -1.7 ± 0.88
85 | CG T56G T57G A58C A59C | -2.31 ± 0.94 | -1.82 ± 0.62
86 | CG T32A A33T A34T T35A | 0.141 ± 0.33 | -0.0669 ± 0.14
87 | CG T31A T32A | -0.442 ± 0.33 | -0.131 ± 0.028
88 | CG T31A T32A A33T A34T | 0.0738 ± 0.43 | -0.0923 ± 0.16
89 | CG T43A A44T | 0.162 ± 0.35 | -0.0354 ± 0.012
90 | TG T76A T78G C87A | 0.336 ± 0.26 | 0.505 ± 0.035
91 | CG T35A | 0.179 ± 0.22 | 0.0694 ± 0.048
92 | CG T35G | 0.136 ± 0.33 | 0.163 ± 0.11
93 | CG T35C | -0.112 ± 0.24 | -0.0902 ± 0.18
94 | CG T42G T43G | 0.178 ± 0.27 | -0.123 ± 0.14
95 | CG T56A T57A A58T A59T | -1.3 ± 0.89 | -1.52 ± 0.76
96 | CG T111A T112A | -0.101 ± 0.79 | -0.479 ± 0.31

Row | Variant | relative integration efficiency (log2) [1] | relative integration efficiency (log2) [2]
97 | GG T84A T86A C87G | 0.0518 ± 0.56 | -0.036 ± 0.31
98 | CG T41G | 0.12 ± 0.36 | -0.128 ± 0.018
99 | CG T41A | -0.651 ± 0.73 | 0.0865 ± 0.047
100 | CG T41C | 1.29 ± 0.16 | 0.304 ± 0.26
101 | CG T76G A77C | -0.497 ± 0.94 | -0.785 ± 0.46
102 | CG T104A T105A | -0.853 ± 0.48 | -0.642 ± 0.47
103 | CG T28G T82G T108G | -3.23 ± 3.2 | -2.28 ± 0.9
104 | CG T57G A58C | -1.37 ± 0.37 | -1.45 ± 0.67
105 | CG T28G A29C | -1.26 ± 0.97 | -1.24 ± 0.55
106 | CG T76A A77T T78A T79A | -0.702 ± 1.2 | -0.611 ± 0.38
107 | CG T43G | -0.00931 ± 0.27 | -0.28 ± 0.043
108 | CG T43C | -0.00723 ± 0.047 | -0.241 ± 0.11
109 | CG T43A | 0.341 ± 0.042 | 0.0102 ± 0.024
110 | CG T30A T31A | 0.174 ± 0.14 | 0.109 ± 0.27
111 | CG T35A A36T | 0.24 ± 0.31 | 0.1527 ± 0.00087
112 | CG T112G T113G T114G G115T | -0.51 ± 0.098 | -0.359 ± 0.072
113 | CG T57A A58T A59T C60G | 1.28 ± 0.42 | 0.281 ± 1
114 | CG T30A T31C T32A A77C T86G | 0.153 ± 0.44 | 0.116 ± 0.27
115 | CG T105A G106C | -2.53 ± 0.084 | -2.19 ± 0.71
116 | CG T86A C87G | 0.622 ± 0.21 | 0.28 ± 0.099
